The source of these data is patent publication US20220332812A1, “TREATMENT METHODS FOR EYE DISORDERS” (University of Pittsburgh - of the Commonwealth System of …, priority 2019, published 2022).

Data set [1] relates to βA3/A1-crystallin.
The subject of data set [2] is diabetic Nuc1 rats. Kind of data set: retinal function by electroretinography (ERG) in diabetic Nuc1 rats. The format is in vivo, rat. The conditions noted are these: FIGS. 20A-20B. The text has this: Therefore, βA1-crystallin is a first of its kind inhibitor that can be used as a therapy for DR.
In data set [3] the target is T1, PTP1B (Homo sapiens, UniProt P18031).
T1 sequence (P18031 1-435): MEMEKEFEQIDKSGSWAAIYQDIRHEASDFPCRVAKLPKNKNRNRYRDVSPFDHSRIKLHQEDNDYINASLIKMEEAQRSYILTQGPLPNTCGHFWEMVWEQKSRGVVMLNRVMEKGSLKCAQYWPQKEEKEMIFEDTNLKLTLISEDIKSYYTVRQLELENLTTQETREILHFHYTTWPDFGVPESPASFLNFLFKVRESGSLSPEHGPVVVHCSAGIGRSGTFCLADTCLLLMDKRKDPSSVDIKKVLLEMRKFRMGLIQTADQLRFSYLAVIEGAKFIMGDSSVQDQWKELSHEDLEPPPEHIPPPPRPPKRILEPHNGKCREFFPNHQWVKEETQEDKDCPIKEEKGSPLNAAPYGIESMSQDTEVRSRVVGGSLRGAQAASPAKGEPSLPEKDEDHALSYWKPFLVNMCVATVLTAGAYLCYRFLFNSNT
Put plainly: pull-down assay. In kind it is binding.

In data set [4] the target is T2, PTP1B (Rattus norvegicus, UniProt P20417).
T2 construct: endogenous in cells; host or cells: astrocytes from wild-type and Nuc1 rats
T2 sequence (P20417 1-432): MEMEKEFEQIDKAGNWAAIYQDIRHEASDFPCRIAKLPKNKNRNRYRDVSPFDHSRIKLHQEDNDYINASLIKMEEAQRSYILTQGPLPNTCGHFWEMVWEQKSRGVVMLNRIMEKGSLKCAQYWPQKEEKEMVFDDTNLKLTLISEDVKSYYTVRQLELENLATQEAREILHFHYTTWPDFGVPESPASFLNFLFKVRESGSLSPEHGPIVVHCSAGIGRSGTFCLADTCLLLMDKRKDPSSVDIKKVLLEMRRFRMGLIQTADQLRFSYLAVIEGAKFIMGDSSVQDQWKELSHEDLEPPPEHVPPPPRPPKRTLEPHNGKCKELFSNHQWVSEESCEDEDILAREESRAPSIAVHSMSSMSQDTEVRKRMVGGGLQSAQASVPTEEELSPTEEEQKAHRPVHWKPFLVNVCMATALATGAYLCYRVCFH
Put plainly: co-immunoprecipitation in astrocytes. To be noted: wild-type astrocytes; binding lost in Nuc1 cells.

Data set [5] has as its target T1, PTP1B. Put plainly: PTP activity kinetics, Lineweaver Burk plots. In kind it is biochemical. The conditions noted are these: FIG. 13.
Data set [6] concerns the target T1, PTP1B. Kind of data set: human proteome high-throughput array, βA3/A1-crystallin binding partners. More on the design: purchased CDI Laboratories, Inc. The conditions noted are these: human proteome high-throughput array (CDI Laboratories).
The target in data set [7] is T3, Dab2 (Homo sapiens, UniProt P98082).
T3 construct: purchased CDI NextGen Proteomics, MD, USA HuProt v3.1
T3 sequence (P98082 1-770): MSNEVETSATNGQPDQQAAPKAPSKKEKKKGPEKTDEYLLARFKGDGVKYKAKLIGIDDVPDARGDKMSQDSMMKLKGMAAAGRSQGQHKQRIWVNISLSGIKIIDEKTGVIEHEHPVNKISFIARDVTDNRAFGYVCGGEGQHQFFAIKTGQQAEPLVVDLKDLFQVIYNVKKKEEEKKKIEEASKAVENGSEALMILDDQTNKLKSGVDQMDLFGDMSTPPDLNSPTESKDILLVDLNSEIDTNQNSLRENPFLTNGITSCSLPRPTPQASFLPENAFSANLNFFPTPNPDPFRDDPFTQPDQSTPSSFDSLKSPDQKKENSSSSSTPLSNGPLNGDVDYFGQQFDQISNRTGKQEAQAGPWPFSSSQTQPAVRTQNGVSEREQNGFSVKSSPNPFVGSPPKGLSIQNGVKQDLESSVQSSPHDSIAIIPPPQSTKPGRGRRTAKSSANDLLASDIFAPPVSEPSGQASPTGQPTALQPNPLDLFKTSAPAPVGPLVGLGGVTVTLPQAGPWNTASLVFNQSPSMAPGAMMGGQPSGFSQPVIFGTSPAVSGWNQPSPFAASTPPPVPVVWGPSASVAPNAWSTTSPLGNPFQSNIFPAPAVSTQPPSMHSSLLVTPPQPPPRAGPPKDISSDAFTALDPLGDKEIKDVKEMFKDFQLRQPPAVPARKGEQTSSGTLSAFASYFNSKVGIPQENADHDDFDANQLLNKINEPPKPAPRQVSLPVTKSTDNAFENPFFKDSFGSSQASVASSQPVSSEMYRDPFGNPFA
Kind of data set: HuProt human proteome microarray, LCN-2 binding partners. To be noted: recombinant LCN-2 probed at 1 μg/mL, Z-score cutoff 6. The protocol:
The human proteome microarray 2.0 analysis was performed as a paid service from CDI NextGen Proteomics, MD, USA. Recombinant LCN-2 was analyzed for protein-protein interaction profiling on the HuProt™ v3.1 human proteome array and the sample was probed on array plates at 1 μg/mL, with data analyzed using GenePix software. Hit identification was assessed as the ratio of median value of the foreground to the median of the surrounding background for each protein probe on the microarray, followed by normalization to the median value of all neighboring probes within the […] window size and represented as the significance of the probe binding signal difference from random noise (Z-Score). The cutoff Z-score was 6 in this study for the triplicate analysis; only protein interactions with a Z-score above 6 were considered.
The above-described observations prompted the further investigation of the possible molecular mechanisms by which neutrophils infiltrate into the retina and thereby contribute to the pathogenesis of AMD. It has previously been shown that LCN-2 regulates neutrophil chemotaxis and cell migration in cancer cells (Shao et al., J. Invest. Dermatol., 136, 1418-1428 (2016), and Du et al., Biochim. Biophys. Acta, 1853: 2240-2250 (2015)). […]

Data set [8] concerns NOD-SCID mice. Kind of data set: sub-retinal injection in NOD-SCID mice, OCT. The format is in vivo, mouse. The text has this: (§1) NOD-SCID mice (NOD.CB17-Prkdescid/J, Jackson Laboratories, USA, male, 4-5 weeks old) were used for the study. A large sample size, n=10, was taken to nullify any experimental anomaly. Mice were anaesthetized and sub-retinal injections of neutrophils from different experimental groups or recombinant LCN-2 protein were given as described previously (Maruotti et al., Proc. Natl. Acad. Sci. USA., 112: 10950-10955 (2015)). Seven days after treatment, the NOD-SCID mice were anaesthetized by intraperitoneal injection of a ketamine and xylazine mixture and then subjected to Fundus imaging along with OCT analysis using the Bioptigen Envisu R2210 system. OCT images were analyzed on optical sections (100 sections per retina) from each eye ranging from −2.0 to +2.0 mm with respect to the optic nerve head (ONH) using the FIJI-ImageJ (NIH) plugin provided with the instrument along with Diver 2.4 software (Bioptigen). After the experiment, the animals were euthanized with CO2 gas and the eyes were harvested for further experiments. […]

Data set [9] deals with NOD-SCID mice. Kind of data set: retinal sections of injected NOD-SCID mice: hematoxylin-eosin staining and immunofluorescence. In kind it is in vivo, mouse. On the procedure:
Freshly enucleated eyes were fixed in 2% paraformaldehyde (PFA) for 10 min and then the anterior parts (cornea, lens, and attached iris pigmented epithelium) were removed. The resulting posterior eyecups were fixed in 2% PFA for 1 h at room temperature either for cryosections or RPE/retina flat mount. For cryosections, the eyecups were dehydrated through gradient sucrose solutions and embedded in OCT and for RPE/retina flatmounts, tissues were removed after the eyecup was quartered like a petaloid structure. The resulting eyecup was further cut radially into eight pieces from the optic nerve head to the periphery. Immunostaining on human/mouse retina sections or on retina/RPE flatmounts were performed by using appropriate primary antibody (1:100) and incubated at 4° C. overnight. The RPE/retina flatmounts or human or mouse retina sections were washed with 1×TBS thrice and then stained with appropriate secondary antibodies (1:300) with 1 μg/mL DAPI (Sigma Aldrich, USA) in the dark at room temperature for 2 h. The tissue sections or flatmounts were washed 6 times with 1×TBS. The tissues were mounted on a cover slip with DAKO mounting agent and then visualized under a confocal microscope (Zeiss LSM710, Switzerland).
as §1, with “Seven days after treatment, the NOD-SCID mice were anaesthetized by intraperitoneal injection of a ketamine and xylazine mixture and then subjected to Fundus imaging along with OCT analysis using the Bioptigen Envisu R2210 system.” left out, “(Bioptigen).” for “(Bioptigen). After the experiment, the animals were euthanized with CO2 gas and the eyes were harvested for further experiments.”

For the molecule “PTP1B (pull-down assay and enzyme kinetics)”, the “Lineweaver Burk plots of PTP activity (Km and Vmax)” value in data set [1] was “Cryba1 treatment decreases the Km and Vmax of PTP activity”.
Regarding `CC(C)[C@@H](CC[C@@H](C)[C@H]1CC[C@H]2[C@@H]3[C@H](O)C[C@H]4C[C@@H](NCCCNCCCCNCCCN)CC[C@]4(C)[C@H]3CC[C@]12C)OS(=O)(=O)O` [MSI-1436], the “retinal function (ERG)” value in data set [2] was “rescues retinal function abnormality”.

B1: βA3/A1-crystallin: two closely related polypeptides encoded by Cryba1, produced by two different translational start sites; biological inhibitor binding PTP1B (protein)
chain: METQTVQRELETLPTTKMAQTNPMPGSMGPWKITIYDQENFQGKRMEFTSSCPNVSERSFDNVRSLKVECGAWIGYEHTSFCGQQFILERGEYPRWDAWSGSNAYHIERLMSFRPICSANHKESKITIFEKENFIGRQWEICDDYPSLQAMGWFNNEVGSMKIQCGAWVCYQYPGYRGYQYILECDHHGGDYKHWREWGTHAQTSQIQSIRRIQQ
For B1, the “binding to PTP1B” value in [3] was “bound to PTP1B”. The “binding partner by co-immunoprecipitation” value in data set [4] is listed as “PTP1B was a binding partner”. Further, in data set [5], the “Km of PTP activity” value was “decreases”, the “Vmax of PTP activity” value was “decreases” and the “mode of PTP1B inhibition” value is “uncompetitive inhibitor of PTP1B”. In data set [6], the “interaction with PTP1B” value is listed as “interact with PTP1B”.

B2: recombinant LCN-2: recombinant Lipocalin-2 protein, full length LCN-2 cDNA expressed in E. coli (protein)
chain: QDSTQNLIPAPSLLTVPLQPDFRSDQFRGRWYVVGLAGNAVQKKTEGSFTMYSTIYELQENNSYNVTSILVRDQDQGCRYWIRTFVPSSRAGQFTLGNMHRYPQVQSYNVQVATTDYNQFAMVFFRKTSENKQYFKITLYGRTKELSPELKERFTRFAKSLGLKDDNIIFSVPTDQCIDN
For the molecule B2, the “interaction with Dab2” value in data set [7] is on record as “interact with Dab2”. Further, the “OCT retinal structure after injection of WT neutrophils pre-treated with the substance” value in data set [8] (NOD-SCID mice injected subretinally, IFNλ 200 U/mL, conditioned media 1:1 diluted, LCN-2 10 pg/mL, FIG. 4(iii)-(v)) was “apparent changes in the ONL and INL layers (asterisks), concomitant with severe loss of RPE and IS+OS layer”. For the same molecule, the “OCT: alterations of retinal layers” value in [8] (NOD-SCID mice, sub-retinal injection, after 7 days) was “alterations in the RPE and photoreceptor (inner and outer segments) layers”. In addition, the “hematoxylin-eosin staining of retinal sections” value in data set [9] (NOD-SCID mice, relative to vehicle control or WT neutrophil injected mice) is on record as “degenerative changes in the outer nuclear layer (ONL) along with photoreceptor layer”. Besides, the “thickness of retinal layers from sections by spider plot” value in data set [9] (NOD-SCID mice, relative to vehicle or WT neutrophil-treated groups) was “severe loss or thinning of IS/OS and RPE layers”. In [9] (immunofluorescence, retina of NOD-SCID mice, with respect to controls), the “rhodopsin and RPE 65 staining (photoreceptor and RPE cell loss)” value is listed as “reduced staining”.
